Patent publication US8398967B2, “Particle formulations for use in pharmaceutical compositions” (Intarcia Therapeutics, Inc., priority 2002, dated 2013)

Experiments:
Lipid moisture level = format: physicochemical; settings: after vacuum at room temperature for 48 hours
Procedure: The moisture level of the lipid, e.g., DOPC, […], or DMPC, is measured after vacuum at room temperature for 48 hours. Lipid vehicles with lower moisture level can be included in viscous liquid compositions.

[1] = ω-Interferon solubility in non-aqueous liquid solvents; format: physicochemical
Description: Thirteen non-aqueous liquid solvent candidates were identified to develop a solution formulation or a suspension formulation based on solubility of ω-interferon. The solvents at the top, e.g., lauryl lactate, are potential suspension solvents. The character of the solvents changes to potential solution solvents in combination with ω-interferon, e.g., glycerol formal, benzyl benzoate, DMSO, or glycerin.

[2] = solvent 1:1 benzyl benzoate:benzyl alcohol, expected conc 10.00 mg/ml
[3] = solvent NMP, expected conc 25.00 mg/ml
[4] = solvent PEG 400, expected conc 25.00 mg/ml
[5] = solvent benzyl alcohol, expected conc 10.00 mg/ml
[6] = solvent ethanol, expected conc 25.00 mg/ml
[7] = solvent ethyl hexyl lactate, expected conc 10.00 mg/ml

## CCCCCCCCCCCCCC(=O)OC[C@H](COP(=O)([O-])OCC[N+](C)(C)C)OC(=O)CCCCCCCCCCCCC [DMPC, dimyristoylphosphatidylcholine]
Lipid moisture level
  Avg. Moisture: 0.6%

## CCCCCCCC/C=C\CCCCCCCC(=O)OC[C@H](COP(=O)([O-])OCC[N+](C)(C)C)OC(=O)CCCCCCC/C=C\CCCCCCCC [DOPC, 1,2-Dioleoyl-sn-glycero-3-phosphatidylcholine]
Lipid moisture level
  Avg. Moisture: 0.6 ± 0.2%

## ω-interferon
[1]; in the solvents that were combined with DOPC to form suspensions
  solubility: less than 0.1 mg/mL
[1]; [2]
  Concentration by SEC: 0 ng/mL
  Concentration by UV: <100 µg/mL
  Concentration by rp-HPLC: 0.00
[1]; [3]
  Concentration by SEC: 0 ng/mL
  Concentration by UV: <100 µg/mL
  Concentration by rp-HPLC: 0.00
[1]; [4]
  Concentration by SEC: 0 ng/mL
  Concentration by UV: <100 µg/mL
  Concentration by rp-HPLC: 0.00
[1]; [5]
  Concentration by SEC: 0 ng/mL
  Concentration by UV: 140 µg/mL
  Concentration by rp-HPLC: 0.00
[1]; [6]
  Concentration by SEC: 0 ng/mL
  Concentration by UV: <100 µg/mL
  Concentration by rp-HPLC: 0.00
[1]; [7]
  Concentration by SEC: 0 ng/mL
  Concentration by UV: 370 µg/mL
  Concentration by rp-HPLC: 0.00
[1]; solvent lauryl alcohol, expected conc 10.00 mg/ml
  Concentration by UV: <100 µg/mL
[1]; solvent lauryl lactate, expected conc 10.00 mg/ml
  Concentration by UV: <100 µg/mL
